Source: article PMC2959089, “The intriguing Cyclophilin A-HIV-1 Vpr interaction: prolyl cis/trans isomerisation catalysis and specific binding” (BMC Structural Biology, 2010)

Molecular target: recombinant human Cyclophilin A (CypA) (human) (UniProt P62937)
Experiment: SPR

Sequence of recombinant human Cyclophilin A (CypA) (human) (P62937 whole entry): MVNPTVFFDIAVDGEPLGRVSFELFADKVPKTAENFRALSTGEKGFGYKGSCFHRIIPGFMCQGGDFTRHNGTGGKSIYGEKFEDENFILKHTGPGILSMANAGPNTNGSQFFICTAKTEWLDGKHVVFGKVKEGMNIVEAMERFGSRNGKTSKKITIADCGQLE

Substance | Kd | ka1 (two-state model, association) | ka2 (two-state model, forward rate) | kd1 (two-state model, dissociation) | kd2 (two-state model, backward rate)
synthetic HIV-1 Vpr peptide sVpr^1-40 | 0.284 mM | 752 M⁻¹ s⁻¹ | 0.0073 s⁻¹ | 0.37 s⁻¹ | 0.0099 s⁻¹
synthetic mutant HIV-1 Vpr peptide sVpr^1-40 P5,10,14N | 6.15 mM | 46 M⁻¹ s⁻¹ | 0.0047 s⁻¹ | 0.56 s⁻¹ | 0.0048 s⁻¹
